Experimental findings from article PMC12326980 are described below.

Common to all, as to test: purified protein
Holding throughout (conditions): 10 mM HEPES pH 7.5, 200 mM NaCl, 15 µM ZnSO4, 50 µg/mL BSA, 30°C

Series [1] has as its system CCN1CCN(C(=O)N[C@@H](C(=O)N[C@@H]2C(=O)N3[C@@H]2SC(C)(C)[C@@H]3C(=O)O)c2ccccc2)C(=O)C1=O.
For series [2], the system named is CO/N=C(\C(=O)N[C@@H]1C(=O)N2C(C(=O)O)=C(COC(C)=O)CS[C@H]12)c1csc(N)n1.
Series [3] relates to CO/N=C(\C(=O)N[C@@H]1C(=O)N2C(C(=O)[O-])=C(C[N+]3(C)CCCC3)CS[C@H]12)c1csc(N)n1.
The test system of series [4] is C[C@@H](O)[C@H]1C(=O)N2C(C(=O)O)=C(SCCN=CN)C[C@H]12.
The subject of series [5] is CC(C)(O/N=C(\C(=O)N[C@@H]1C(=O)N2C(C(=O)[O-])=C(C[n+]3ccccc3)CS[C@H]12)c1csc(N)n1)C(=O)O.

As to CJO-1 (Chryseobacterium joostei), the Km in series [1] is recorded as 1,900 ± 300 µM; in series [2], 126 ± 4 µM; in series [3], 440 ± 60 µM; in series [4], 2,700 ± 500 µM; in series [5], 1,000 ± 400 µM. Moreover, the kcat in series [1] turned out to be 30 ± 4 s⁻¹; in series [2] it was 528 ± 6 s⁻¹; in series [3], 19 ± 2 s⁻¹; in series [4] it was 280 ± 40 s⁻¹; in series [5], 110 ± 30 s⁻¹. In addition, the kcat/Km in series [1] is 16000 ± 5000 M⁻¹ s⁻¹; in series [2], 4.2e+06 ± 200000 M⁻¹ s⁻¹; in series [3] it was 43000 ± 9000 M⁻¹ s⁻¹; in series [4] it was 100000 ± 30000 M⁻¹ s⁻¹; in series [5], 100000 ± 60000 M⁻¹ s⁻¹.
Turning to CIM-2 (Chryseobacterium indologenes), the Km in series [1] is 2,400 ± 500 µM; in series [2] it was 180 ± 20 µM; in series [3], 700 ± 200 µM; in series [4], 2,300 ± 300 µM; in series [5], 2,000 ± 300 µM. The kcat was 48 ± 7 s⁻¹ in series [1]; 820 ± 30 s⁻¹ in series [2]; 28 ± 5 s⁻¹ in series [3]; 2000 ± 200 s⁻¹ in series [4]; 380 ± 50 s⁻¹ in series [5]. For the same substance, the specificity constant (kcat/Km) stood at 20000 ± 7000 M⁻¹ s⁻¹ in series [1]; 4.7e+06 ± 700000 M⁻¹ s⁻¹ in series [2]; 40000 ± 20000 M⁻¹ s⁻¹ in series [3]; 900000 ± 200000 M⁻¹ s⁻¹ in series [4]; 180000 ± 50000 M⁻¹ s⁻¹ in series [5].
